Consider three molecules from patent US12653863B2, “FGF21 compositions for treatment or prevention of neovascularization of the eye and methods therefor” (Children's Medical Center Corporation, priority 2017, dated 2026).

One series has as its system HRMEC. In words: HRMEC wound healing and cell viability assays. It counts as cell-based. Particulars: in vitro, FIG. 7C-7D.
Another series deals with 661W cells. In words: 661W photoreceptor cells with paraquat-induced oxidative stress. Particulars: PQ-treated 661W, co-treatment with 500 ng/ml PF-05231023, perifosine 5 or 10 μM. It counts as cell-based. How it is done: Photoreceptors (661W) cell culture: Photoreceptor 661W cells were cultured at 37° Celsius, 5% CO2 in a humidified atmosphere in Dulbecco's modified Eagle's medium (DMEM, #1196502, Gibco) supplemented with 10% fetal bovine serum (#S12450, Atlanta Biologicals) and 1% antibiotic/antimycotic solution. An equal number of cells per well was plated on a 6-well dish. Oxidative stress was induced with 0.5 mM paraquat (PQ, Sigma, #856177) for 1 hour at 37° Celsius. The culture media were changed and the cells were treated with vehicle (PBS) or 500 ng/ml PF-05231023 for 24 hours. Cells were collected for protein and RNA.
Real-time PCR: Retinas or 661W cells were lysed with QIAzol lysis reagent and incubated on ice for 15 minutes. 20% chloroform was added and incubated for 5 minutes at room temperature. […] Quantitative analysis of gene expression was generated using an Applied Biosystems 7300 Sequence Detection System with the SYBR Green Master mix kit and gene expression was calculated relative to Cyclophilin A ((5′-CAG ACG CCA CTG TCG CTT T-3′ (SEQ ID NO: 30); 5′-TGTCTTTGGAACTTTGTCTGCAA-3′(SEQ ID NO: 31)) (retinas) or β-actin ((5′-CGGTTCCGATGCCCTGAGGCTCTT-3′ (SEQ ID NO: 48), 5′-CGTCACACTTCATGATGGAATTGA-3′ (SEQ ID NO: 49)) (photoreceptor 661W cells) using the ΔΔCt method. Each sample was repeated in triplicate. […]

For series [1] the following is noted: Huang et al., 2013; cited from earlier work.
Series [2] has as its system mice having oxygen-induced retinopathy. Put plainly: mouse oxygen-induced retinopathy (OIR), retinal whole mounts and retinal qPCR at P17. Format: in vivo. Conditions: WT OIR mice, i.p. daily P12-P16, P17 retinal whole mounts, vs vehicle. How it is done:
Oxygen-induced retinopathy: mice were exposed to 75% oxygen from P7 to P12. The mice were then returned to room air until P17 (Connor et al., 2009; Smith et al., 1994). High oxygen led to vessel loss and the relative hypoxia induced neovascularization which reached to maximum at P17 (Smith et al., 1994). Both genders of mouse pups were used with body weight ranging from 5.5 to 7 grams (Connor et al., 2009). The mice were randomly assigned to either native FGF21 (5 mg/kg, twice per day) or long-acting FGF21 (1 mg/kg PF-05231023) or phosphate buffered saline (PBS). The mice were intraperitoneally injected daily from P12 to P16. For the intra-vitreal injection of PF-05231023 (0.5 μl 10 μg/μl stock per eye) was delivered using 10 μl syringe with 35G needle (World Precision Instruments, Inc.) at P12. The contralateral eye was injected with vehicle control. At P17, retinal neovascularization was quantified (Connor et al., 2009; Smith et al., 1994). […] Retinal neovascularization was quantified as previously reported (Connor et al., 2009). Percentages of neovascularization were calculated by comparing the number of pixels in the neovascular areas with the total number of pixels in the retina. n is the number of eyes quantified. […]
(In general: Quantitative PCR measures a nucleic acid by following its amplification.)

Series [3] has as its system hyperglycemic mouse neonates. In words: streptozotocin (STZ)-induced hyperglycemic ROP mouse model. It counts as in vivo. The source says:
Hyperglycemia is a recently described risk factor for retinopathy of prematurity (ROP) in premature infants. In streptozotocin (STZ)-induced hyperglycemic ROP mouse model, retinal vascular development was confirmed as delayed. Specifically, FGF21 deficiency delayed normal retinal vascular network formation and worsened hyperglycemic ROP in such mice. Native (nFGF21) and long-acting FGF21 (PF-05231023) treatment were both observed to have promoted retinal vessel growth in hyperglycemic ROP. The protection of FGF21 observed was also confirmed as dependent upon adiponectin (APN).

With `O=C(COc1ccc(C(=O)c2ccccc2)cc1)NC1CCN(Cc2ccccc2)CC1` [AdipoRon], the “endothelial cell function (wound healing, viability)” value in the series on HRMEC is recorded as “inhibited endothelial cell function in vitro”.
As for `CCCCCCCCCCCCCCCCCCOP(=O)([O-])OC1CC[N+](C)(C)CC1` [perifosine], the “induction of NRF2 expression by PF-05231023” value in the series on 661W cells is reported as “dose-dependently inhibited”.

B1: Native FGF21: native FGF21 (nFGF21), unmodified FGF21 with short half-life (protein, UniProt Q9NSA1 29-209, looked up)
Fibroblast growth factor 21: HPIPDSSPLLQFGGQVRQRYLYTDDAQQTEAHLEIREDGTVGGAADQSPESLLQLKALKPGVIQILGVKTSRFLCQRPDGALYGSLHFDPEACSFRELLLEDGYNVYQSEAHGLPLHLPGNKSPHRDPAPRGPARFLPLPGLPPALPEPPGILAPQPPDVGSSDPLSMVGPSQGRSPSYAS
Regarding B1, the half-life in series [1] is 24 min. In series [2], the retinal neovascularization entry is listed as “did not affect neovascularization”. Further, the retinal vascular growth entry in series [3] is listed as “improved retinal vascular growth”.

In general, half-life refers to the time in which the quantity being followed falls by half.
